{"source": "paper PMC5640511", "about": "(Current Biology, 2017)", "target": "Bub3 (recombinant, untagged) (human, UniProt O43684 1-328)", "sequence (O43684 whole entry)": "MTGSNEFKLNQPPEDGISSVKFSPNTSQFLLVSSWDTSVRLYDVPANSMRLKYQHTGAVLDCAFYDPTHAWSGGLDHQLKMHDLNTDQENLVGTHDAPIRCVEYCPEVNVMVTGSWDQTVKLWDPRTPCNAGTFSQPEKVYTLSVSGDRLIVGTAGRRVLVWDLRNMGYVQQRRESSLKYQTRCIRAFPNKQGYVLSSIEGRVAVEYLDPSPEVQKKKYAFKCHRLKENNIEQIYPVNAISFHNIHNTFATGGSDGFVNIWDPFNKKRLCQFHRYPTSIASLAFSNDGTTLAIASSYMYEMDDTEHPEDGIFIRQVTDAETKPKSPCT", "assay": "SEC"}
{"binder": "BubR1 1-571 B1-LL (recombinant) (other) MAAVKKEGGALSEAMSLEGDEWELSKENVQPLRQGRIMSTLQGALAQESACNNTLQQQKRAFEYEIRFYTGNDPLDVWDRYISWTEQNYPQGGKESNMSTLLERAVEALQGEKRYYSDPRFLNLWLKLGRLCNEPLDMYSYLHNQGIGVSLAQFYISWAEEYEARENFRKADAIFQEGIQQKAEPLERLQSQHRQFQARVSRQTLLALEKEEEEEVFESSVPQRSTLAELKSKGKKTARAPIIRVGGALKAPSQNRGLQNPFPQQMQNNSRITVFDENADEASTAELSKPTVQPWIAPPMPRAKENELQAGPWNTGRSLEHRPRGNTASLIAVPAVLPSFTPYVEETARQPVMTPCKIEPSIRRVITISKSEYSVHSSLASKVDVEQVVMYCKEKIYAGVGEFSFEEIRAEVFRKKLKEQREAELLTSAEKRAEMQKQIEEMEKKLKEIQTTQQERTGDQQEETMPTKETTKLQIASESQKIPGMTLSSSVCQVNCCARETSLAENIWQEQPHSKGPSVPFSIFDEFLLSEKKNKSPPADPPRVLAQRRPLAVLKTSESITSNE", "values": [{"measurement": "binding result", "value": "binds"}]}
